Our source for the reverse-splicing fitness values is the RNAGym collection of RNA variant scans (doi:10.1093/molbev/msab373).

B1: Azoarcus group I ribozyme (parent)
chain: GUGCCUUGCGCCGGGAAACCACGCAAGGGAUGGUGUCAAAUUCGGCGAAACCUAAGCGCCCGCCCGGGCGUAUGGCAACGCCGAGCCAAGCUUCGGCGCCUGCGCCGAUGAAGGUGUAGAGACUAGACGGCACCCACCUAAGGCAAACGCUAUGGUGAAGGCAUAGUCCAGGGAGUGGCGAAAGUCACACAAACCGG

The data set covers variants of B1. Kind of data set: reverse-splicing fitness (ratio to wild type); higher = more active; in vitro selection; Mg2+ level not given. The method in brief:
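An in vitro group I ribozyme library with randomized positions was T7-transcribed and gel-purified. In triplicate, 10 pmol RNA in EPPS pH 7.5 was reacted with 50 pmoles of a 30-nt RNA substrate for 1 h at 37 °C across several added MgCl2 levels (1–48 mM), then stopped with EDTA. Products were reverse transcribed from a substrate-complementary primer, PCR-amplified and sequenced (HiSeq 4000). Fitness is a variant's read proportion after selection over that before, normalised to wild type.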
With C82A A145U C169U U176G, the reverse-splicing fitness was found to be 0.00434.
The same measure for C82A A145U C169U U176A: 0.0117; for C82A C150A C169G: 0.00927.
Consider C82A C150A C169U, for which the reverse-splicing fitness is 0.00897.
The same measure for C82A C150A C169A: 0.0109.
The same measure for C82A A145U: 0.635; for C82A A145G: 0.631.
In the case of C82A C150A, the reverse-splicing fitness came out at 0.0666.
The figure for C82A C150G is 0.0487.
The figure for C82A A145U C150A U176C is 0.0555; for C82A A145U C150A U176A it is 0.0485.
The figure for C82A A145U C150A U176G is 0.0181.
As for C82A A145G C169U U176G, the reverse-splicing fitness came out at 0.00459.
The figure for C82A A145G C169U U176A is 0.0146.
In the case of C82A A145G C169U U176C, the reverse-splicing fitness is 0.0143.
For C82A A145G C150A C169U, the reverse-splicing fitness came out at 0.0112.
As to C82A A145G C150A C169G, the reverse-splicing fitness was 0.00939.
In the case of C82A A145G C150A C169A, the reverse-splicing fitness was determined as 0.0108.
The same measure for C82A C150A C169A U176C: 0.0177; for C82A C150A C169A U176G: 0.007.
The same measure for C82A C150A C169A U176A: 0.0211; for C82A A145U U176C: 0.482; for C82A A145U U176G: 0.157.
The figure for C82A A145U U176A is 0.386; for C82A A145U C150G U176C it is 0.0521.
C82A A145U C150G U176A: the reverse-splicing fitness was 0.0365.
The same measure for C82A A145U C150G U176G: 0.0081; for C82A A145G C150G C169G: 0.00856; for C82A A145G C150G C169A: 0.00856.
The same measure for C82A A145G C150G C169U: 0.00998; for C82A A145U C150U C169A: 0.00956; for C82A A145U C150U C169U: 0.0127.
The figure for C82A A145U C150U C169G is 0.00961; for C82A A145G C169A U176G it is 0.00573; for C82A A145G C169A U176A it is 0.0185.
In the case of C82A A145G C169A U176C, the reverse-splicing fitness is 0.0322.
As to C82A A145G C150U C169A, the reverse-splicing fitness is 0.0115.
The figure for C82A A145G C150U C169U is 0.0162; for C82A A145G C150U C169G it is 0.0117; for C82A C150G C169A U176A it is 0.0112.
The figure for C82A C150G C169A U176C is 0.0111.
The figure for C82A C150G C169A U176G is 0.00678.
With C82A A145C U176A, the reverse-splicing fitness stood at 0.346.
The same measure for C82A A145C U176C: 0.44.
As for C82A A145C U176G, the reverse-splicing fitness was 0.129.
The same measure for C82A C150A U176A: 0.0524; for C82A C150A U176G: 0.021; for C82A C150A U176C: 0.0632.
With C82A C150A C169U U176A, the reverse-splicing fitness was determined as 0.0152.
The same measure for C82A C150A C169U U176G: 0.00672; for C82A C150A C169U U176C: 0.0166.
The same measure for C82A A145C C169G U176G: 0.00402; for C82A A145G C150A C169G U176C: 0.0281; for C82A A145G C150A C169G U176G: 0.0061.
The same measure for C82A A145G C150A C169G U176A: 0.0164; for C82A A145G U176C: 0.488.
Regarding C82A A145G U176A, the reverse-splicing fitness stood at 0.387.
For the variant C82A A145G U176G, the reverse-splicing fitness was 0.113.
As to C82A A145U C150G C169G, the reverse-splicing fitness worked out at 0.00797.
The same measure for C82A A145U C150G C169A: 0.00902.
The same measure for C82A A145U C150G C169U: 0.00935; for C82A C150G U176A: 0.0245.
The figure for C82A C150G U176C is 0.0393.
On to C82A A145G C150U C169A U176G, for which the reverse-splicing fitness was determined as 0.00665.
The figure for C82A A145G C150U C169A U176A is 0.0161; for C82A A145G C150U C169A U176C it is 0.0166.
The same measure for C82A A145G C150U U176G: 0.0838; for C82A A145G C150U U176A: 0.287.
The same measure for C82A A145G C150U U176C: 0.363; for C82A A145U C169U: 0.0136; for C82A A145U C169G: 0.00976.
Consider C82A A145U C169A, for which the reverse-splicing fitness was found to be 0.0085.
The figure for C82A A145U C150A C169U U176A is 0.0139.
The figure for C82A A145U C150A C169U U176C is 0.013.
The figure for C82A A145U C150A C169U U176G is 0.00584; for C82A A145G C150A C169U U176C it is 0.0137.
For C82A A145G C150A C169U U176G, the reverse-splicing fitness was found to be 0.00699.
For C82A A145G C150A C169U U176A, the reverse-splicing fitness was 0.0138.
As for C82A A145U C150U, the reverse-splicing fitness was found to be 0.449.
The figure for C82A A145U C150A is 0.0549.
The same measure for C82A A145U C150G: 0.0675.
The same measure for C82A A145G C150A U176A: 0.0679; for C82A A145G C150A U176G: 0.0222; for C82A A145G C150A U176C: 0.0855.
